Substitutions are numbered along the chain they refer to. Numbers in names are those of the source.
What was measured:
Details in all cases: protein: recombinant;recombinant; tags: ;N-terminal His; copies: 1;1; label: 5'-32P on forward (C-rich) strand; blunt
[1] = biological target: T1, GABPA (GABP alpha);GABPB (GABP beta1L) (human?;human?, UniProt Q06546;Q06547 1-454;1-395, |); assay: DNase I footprinting; 5 uM GABP; bound via native site, not at the unmutated proto-sites; 20 mM Tris-Cl pH 7.5, 5% glycerol, 5.2 mM MgCl2, 50 mM KCl, 1 mM TCEP, 20 nM oligo, 1 h room temperature; EMSA on 4% native PAGE, 0.5x TBE, 4 C
[2] = biological target: T1, GABPA (GABP alpha);GABPB (GABP beta1L); assay: DNase I footprinting; 5 uM GABP; -124 de novo site and native site; 20 mM Tris-Cl pH 7.5, 5% glycerol, 5.2 mM MgCl2, 50 mM KCl, 1 mM TCEP, 20 nM oligo, 1 h room temperature; EMSA on 4% native PAGE, 0.5x TBE, 4 C
[3] = biological target: T1, GABPA (GABP alpha);GABPB (GABP beta1L); assay: DNase I footprinting; 5 uM GABP; -146 de novo site and native site; 20 mM Tris-Cl pH 7.5, 5% glycerol, 5.2 mM MgCl2, 50 mM KCl, 1 mM TCEP, 20 nM oligo, 1 h room temperature; EMSA on 4% native PAGE, 0.5x TBE, 4 C

T1 sequence (Q06546 whole entry, chain 1 of 2): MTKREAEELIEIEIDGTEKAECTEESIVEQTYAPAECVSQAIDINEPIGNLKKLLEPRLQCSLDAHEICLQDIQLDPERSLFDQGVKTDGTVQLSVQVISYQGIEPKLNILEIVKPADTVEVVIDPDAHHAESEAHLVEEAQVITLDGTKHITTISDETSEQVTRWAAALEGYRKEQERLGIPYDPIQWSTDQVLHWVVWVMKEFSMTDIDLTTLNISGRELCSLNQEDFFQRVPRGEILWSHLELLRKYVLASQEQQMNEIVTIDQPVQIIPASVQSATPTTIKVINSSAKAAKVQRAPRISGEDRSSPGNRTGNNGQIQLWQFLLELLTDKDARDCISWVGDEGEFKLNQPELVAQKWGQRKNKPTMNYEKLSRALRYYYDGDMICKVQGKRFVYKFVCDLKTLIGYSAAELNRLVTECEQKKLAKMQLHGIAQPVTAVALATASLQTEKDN
T1 sequence (Q06547 whole entry, chain 2 of 2): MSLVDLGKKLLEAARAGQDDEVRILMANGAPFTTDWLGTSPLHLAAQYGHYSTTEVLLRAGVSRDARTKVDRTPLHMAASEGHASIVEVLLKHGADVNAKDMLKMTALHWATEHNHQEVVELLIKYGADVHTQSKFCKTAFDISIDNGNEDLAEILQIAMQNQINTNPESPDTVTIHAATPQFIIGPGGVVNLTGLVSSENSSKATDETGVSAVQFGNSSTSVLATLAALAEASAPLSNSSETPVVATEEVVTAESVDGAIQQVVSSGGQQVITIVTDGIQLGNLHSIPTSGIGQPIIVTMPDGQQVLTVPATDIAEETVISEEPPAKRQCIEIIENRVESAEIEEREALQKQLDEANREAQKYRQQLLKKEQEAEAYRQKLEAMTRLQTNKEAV

B1: TERTp WT 90 (dsDNA)
DNA 1: ACCCCGCCCCGTCCCGACCCCTCCCGGGTCCCCGGCCCAGCCCCCTCCGGGCCCTCCCAGCCCCTCCCCTTCCTTTCCGCGGCCCCGCCC
DNA 2: GGGCGGGGCCGCGGAAAGGAAGGGGAGGGGCTGGGAGGGCCCGGAGGGGGCTGGGCCGGGGACCCGGGAGGGGTCGGGACGGGGCGGGGT
binding result [1]: binds

B2: TERTp -124 mutant 90 (C228T) (dsDNA)
DNA 1: B1 DNA 1 with C45T
DNA 2: B1 DNA 2 with G46A
binding result [2]: binds

B3: TERTp -146 mutant 90 (C250T) (dsDNA)
DNA 1: B1 DNA 1 with C23T
DNA 2: B1 DNA 2 with G68A
binding result [3]: binds
